Test results published in paper doi:10.1101/2025.01.30.635686 (bioRxiv, 2025).
Where two headings read alike, the source gives them in different places.

Legend:
[1] = biological target: the molecule itself; assay: SEC
[2] = biological target: the molecule itself

Protein | stoichiometry N [1] | stoichiometry N [2]
^hexYME1L (hex-tag, 10-residue linker and the catalytic domain of human YME1L, residues 317-773) (other, homo sapiens) GELKAIAQELKAIAKELKAIAWELKAIAQGAGGSGSYFQSNARFRTTTGLDSAVDPVQMKNVTFEHVKGVEEAKQELQEVVEFLKNPQKFTILGGKLPKGILLVGPPGTGKTLLARAVAGEADVPFYYASGSEFDEMFVGVGASRIRNLFREAKANAPCVIFIDELDSVGGKRIESPMHPYSRQTINQLLAEMDGFKPNEGVIIIGATNFPEALDNALIRPGRFDMQVTVPRPDVKGRTEILKWYLNKIKFDQSVDPEIIARGTVGFSGAELENLVNQAALKAAVDGKEMVTMKELEFSKDKILMGPERRSVEIDNKNKTITAYHESGHAIIAYYTKDAMPINKATIMPRGPTLGHVSLLPENDRWNETRAQLLAQMDVSMGGRVAEELIFGTDHITTGASSDFDNATKIAKRMVTKFGMSEKLGVMTYSDTGKLSPETQSAIEQEIRILLRDSYERAKHILKTHAKEHKNLAEALLTYETLDAKEIQIVLEGKKLEVR | 6 | –
^hexYME1L_(E439A) M452C (other, homo sapiens) GELKAIAQELKAIAKELKAIAWELKAIAQGAGGSGSYFQSNARFRTTTGLDSAVDPVQMKNVTFEHVKGVEEAKQELQEVVEFLKNPQKFTILGGKLPKGILLVGPPGTGKTLLARAVAGEADVPFYYASGSEFDEMFVGVGASRIRNLFREAKANAPCVIFIDALDSVGGKRIESPCHPYSRQTINQLLAEMDGFKPNEGVIIIGATNFPEALDNALIRPGRFDMQVTVPRPDVKGRTEILKWYLNKIKFDQSVDPEIIARGTVGFSGAELENLVNQAALKAAVDGKEMVTMKELEFSKDKILMGPERRSVEIDNKNKTITAYHESGHAIIAYYTKDAMPINKATIMPRGPTLGHVSLLPENDRWNETRAQLLAQMDVSMGGRVAEELIFGTDHITTGASSDFDNATKIAKRMVTKFGMSEKLGVMTYSDTGKLSPETQSAIEQEIRILLRDSYERAKHILKTHAKEHKNLAEALLTYETLDAKEIQIVLEGKKLEVR | – | 6
^hexYME1L_(E439A) M701C (other, homo sapiens) GELKAIAQELKAIAKELKAIAWELKAIAQGAGGSGSYFQSNARFRTTTGLDSAVDPVQMKNVTFEHVKGVEEAKQELQEVVEFLKNPQKFTILGGKLPKGILLVGPPGTGKTLLARAVAGEADVPFYYASGSEFDEMFVGVGASRIRNLFREAKANAPCVIFIDALDSVGGKRIESPMHPYSRQTINQLLAEMDGFKPNEGVIIIGATNFPEALDNALIRPGRFDMQVTVPRPDVKGRTEILKWYLNKIKFDQSVDPEIIARGTVGFSGAELENLVNQAALKAAVDGKEMVTMKELEFSKDKILMGPERRSVEIDNKNKTITAYHESGHAIIAYYTKDAMPINKATIMPRGPTLGHVSLLPENDRWNETRAQLLAQMDVSMGGRVAEELIFGTDHITTGASSDFDNATKIAKRMVTKFGMSEKLGVCTYSDTGKLSPETQSAIEQEIRILLRDSYERAKHILKTHAKEHKNLAEALLTYETLDAKEIQIVLEGKKLEVR | – | 6
^hexYME1L_(E439A) M500C (other, homo sapiens) GELKAIAQELKAIAKELKAIAWELKAIAQGAGGSGSYFQSNARFRTTTGLDSAVDPVQMKNVTFEHVKGVEEAKQELQEVVEFLKNPQKFTILGGKLPKGILLVGPPGTGKTLLARAVAGEADVPFYYASGSEFDEMFVGVGASRIRNLFREAKANAPCVIFIDALDSVGGKRIESPMHPYSRQTINQLLAEMDGFKPNEGVIIIGATNFPEALDNALIRPGRFDCQVTVPRPDVKGRTEILKWYLNKIKFDQSVDPEIIARGTVGFSGAELENLVNQAALKAAVDGKEMVTMKELEFSKDKILMGPERRSVEIDNKNKTITAYHESGHAIIAYYTKDAMPINKATIMPRGPTLGHVSLLPENDRWNETRAQLLAQMDVSMGGRVAEELIFGTDHITTGASSDFDNATKIAKRMVTKFGMSEKLGVMTYSDTGKLSPETQSAIEQEIRILLRDSYERAKHILKTHAKEHKNLAEALLTYETLDAKEIQIVLEGKKLEVR | – | 6
